From PMC7889167 (mAbs, 2021)

Target: biotinylated hIL-21 R (human, UniProt Q9HBE5, biotin (site not stated))
Assay: AlphaScreen or HTRF

Chain of biotinylated hIL-21 R (Q9HBE5 20-232): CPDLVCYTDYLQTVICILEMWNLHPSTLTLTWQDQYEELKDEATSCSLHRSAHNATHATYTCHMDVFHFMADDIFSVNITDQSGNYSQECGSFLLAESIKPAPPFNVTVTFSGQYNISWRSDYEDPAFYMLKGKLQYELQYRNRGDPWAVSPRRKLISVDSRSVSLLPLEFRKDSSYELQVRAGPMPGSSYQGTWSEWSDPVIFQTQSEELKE

B1: europium cryptate-labeled MJ4-2 (antibody, V domains shown)
VH: EVQLVESGGGLVQPGRSLRLSCAASGVTFSDYHMAWVRQAPKKGLEWVATIIYDAARTYYRDSVKGRFTISRDNAKNSLYLQMNSLRAEDTAVYYCATWQTTGTPGWFAYWGQGTLVTVSS
VL: DIQMTQSPSSLSASVGDRVTITCGASQSVSISRFNLMHWYQQKPGHQPKLLIYRASNLASGVPSRFSGSGSGTDFTLTINPLQAEDFATYYCQQSRESPPTFGGGTKVEIK
B1: binds.
